The data set is described as follows: yeast display, Sf9 membrane polyspecificity reagent, FACS + sequencing; frameworks hold sequencing errors. In short, it runs like this:
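In a synthetic yeast display library (Saccharomyces cerevisiae BJ5465), nanobody expression was induced with galactose for 36–48 hours. FACS gates were set low and high (top ~1%) using anti-HA fluorescence for expression and streptavidin fluorescence for binding of the Sf9 membrane reagent. Each polyreactivity label is drawn from the gate of origin.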
As to “QVQLVESGGGLVQAGGILRLSCAASGSIFGWYAMGWYRQAPGKERELVAGISWSGANTYYADSVKGRFTISRDNAKNTVYLQMNSLKPEDTAVYYCAAGPGRYYSRRYGYWGQGTQVTVSS”, the “polyreactivity (PSR sort gate)” value was “high polyreactivity”.

With “QVQLVESGGGLVQAGGILRLSCAASGSIFIYYAMVWYRQAPGKERELVAAISSSGGRTYYADSVKGRFTISRDNAKNTVYLQMNSLTPEDTAVYYCNAVGRRWYRDPARYNEYNYWGQGTQVTVSS”, the “polyreactivity (PSR sort gate)” value is “high polyreactivity”.

As to “QVQLVESGGGLVQAGGILRLSCAASGSIFNRNAMGWYRQAPGKEREFVADISWSGGSTYYADSVKGRFTISRDNAKNTVYLQMNSLKPEDTAVYYCAAKSTGRWWRAGYVYWGQGTQVTVSS”, the “polyreactivity (PSR sort gate)” value is “high polyreactivity”.

For “QVQLVESGGGLVQAGGILRLSCAASGSIFQTNAMGWYRPAPGKERELVAAISQRGGRTYYADSVKGRFTISRDYAKNTVYLHLKSLKPEDTAVYYGAATQSQRVHAARYGYWGQGSQVTVSS”, the “polyreactivity (PSR sort gate)” value is on record as “high polyreactivity”.

Take “QVQLVESGGGLVQAGGILRLSCAASGSIFYHYAMGWYRQAPGKDREFVAAITRRGTSTYYADSVKGRFTISRDIAKKTVYLQMNSLKPEDTAVYYWAARYGPNMDYWGQGTQVTVSS”: the “polyreactivity (PSR sort gate)” value is recorded as “high polyreactivity”.

“QVQLVESGGGLVQAGGILRLSCAASGSIVVGYAMGWYRPAPGKERELVGAITGSGTRTDYADSVKGRFTISRDNAKNPVYLHMNSLKPEDTAVYNCAAPMSYKNVKYDYWGQGTQVTVSS”: the “polyreactivity (PSR sort gate)” value is “low polyreactivity”.

As to “QVQLVESGGGLVQAGGILRLSCAASGSNFWTNAMGWYRQAPGKERELVARISPGGSTNYADSVKGRFTISRDNAKNTVYLQMNSLKPEDTAVYYCAAQRGYVYGYDYWGQGTQVTVSS”, the “polyreactivity (PSR sort gate)” value is reported as “low polyreactivity”.

In the case of “QVQLVESGGGLVQAGGILRLSCAASGSTFGYYAMGWYRPAPGKERELVAAIRSDDITYYADSVKGRFTISRDNAKNTVYLQMISLKPEDTAVYYCAVSQRYGGRRGCYWGQGTQVTVSS”, the “polyreactivity (PSR sort gate)” value is reported as “low polyreactivity”.

Turning to “QVQLVESGGGLVQAGGILRLSCAASGSTFIYNAMGLYRQAPGKEREFVASISASGGSTRYADSVKGRFTISRDNAKNTVYLQMNSLKQEDTAVYYCAKLLYLGRWRFPAGYNHWGQGTQVTVSS”, the “polyreactivity (PSR sort gate)” value is listed as “high polyreactivity”.

On to “QVQLVESGGGLVQAGGILRLSCAASGSTFNDYAMGRYRQAPGKERELVAAISASGSITYYADSVKGRFTISRDIAKNTVNLQMISLKPEDTAVYYCNARGYRGYDYWGQGTQVTVSS”, for which the “polyreactivity (PSR sort gate)” value is on record as “high polyreactivity”.

On to “QVQLVESGGGLVQAGGILRLSCAASGSTFRIYAKGWYRPAPGKERELVAGIRSSGGSTYYADSVKGRFTISRDKAKNTDYLQLNSLKPEDTAVYYCAKRHPYSWGSYQRYNYWGQGTQVTVSS”, for which the “polyreactivity (PSR sort gate)” value was “low polyreactivity”.

For “QVQLVESGGGLVQAGGILRLSCAASGSTFSYYAMGWYRQAPGKERELVARISKDTGSTYYADSVKGRFTISRDNAKNTVYLQMNSLKPEDTAVYYCAAELDYFPGYDYWGQGTQVTVSS”, the “polyreactivity (PSR sort gate)” value is reported as “low polyreactivity”.

For the sequence “QVQLVESGGGLVQAGGILRLSCAASGSTFYRNAMGWYRQEPGKEREFVAAISFRGGGTYADSVKGRFTISRDNAKNTVYLQMNSLKPEDSAVYYCAAESKPRWYVRYDYWGQGTQVTVSS”, the “polyreactivity (PSR sort gate)” value is recorded as “low polyreactivity”.

For “QVQLVESGGGLVQAGGILRLSCAASVRIFGVYAMGWYRQAPGKERELVAAITSGGSTTYADSVKGRFTISRDNAKNNVYLQMNSLKQEDTAVYYCNKEPQPFFLYGYWGQGTQVTVSS”, the “polyreactivity (PSR sort gate)” value is given as “low polyreactivity”.

For the sequence “QVQLVESGGGLVQAGGILRLSCAAYGRTFYLYTMGWYRQEPGKERELVAAISRGGRTYADSVKGRFTISRDNAKNTVYLQMNSLKPEDTAVYYCADRGYFYYSRYDSWGQGTQVTVSS”, the “polyreactivity (PSR sort gate)” value is “low polyreactivity”.

On to “QVQLVESGGGLVQAGGILRLSCDASGRIFYSYAMGWYRQAHGKERVLVAAIDESVGSKYYADSVKGRFTISRDNAKNTVYLHMNSLKREDTAVYYCAADYLLVLFYYWGQGTQVTVSS”, for which the “polyreactivity (PSR sort gate)” value is “low polyreactivity”.

“QVQLVESGGGLVQAGGILRLSCPASGIIIPLYAMGWYIQAPGKERELVATINIGGSTNYADSVKGRFTISRDNAKNTVYLQMNSLKPEDTAVYYCAADVDSLQRYESWGQGTQVTVSS”: the “polyreactivity (PSR sort gate)” value is listed as “low polyreactivity”.

As for “QVQLVESGGGLVQAGGILRLSFAASGSTFYPNTMGWYRQAPGKERELVAAITNGGSTNYADSVKGRFTIARDNAKNTVYLQMNSLKPEDTAVYDCAADGYDQWGRDVVYLIWTSYDYWGQGTQVTVSS”, the “polyreactivity (PSR sort gate)” value is “high polyreactivity”.

For “QVQLVESGGGLVQAGGILRLSSAASGFTFSRNAMGWYRQAPGKERELVASISGRGGRTYYADSVKGRFTISRDNAKNTVSLQMNSLKPEDTAVYDCAARWRQRKSVRYGQQGYDYWGQGTQVSVSS”, the “polyreactivity (PSR sort gate)” value is on record as “high polyreactivity”.

In the case of “QVQLVESGGGLVQAGGNLRLSCAASGFIFTRYAMGWYRQAPGKERELVAAISTSGDRTYYADSVKGRFTISRDNAKNTVYLQMNSLKPEDTAVYYCATSKSYSSKLYDYWGQGTQVTVSS”, the “polyreactivity (PSR sort gate)” value was “high polyreactivity”.

As for “QVQLVESGGGLVQAGGNLRLSCAASGGIFYLYAMGWYRPAPGKERELVASINWRSATTYYADSVKGRFTISRDNAKNTVYLQMNSLKPEDTAVYYCNVQWYGGYDYWGQGSQVTVSS”, the “polyreactivity (PSR sort gate)” value is recorded as “low polyreactivity”.

Regarding “QVQLVESGGGLVQAGGNLRLSCAASGNIFYVYAMGWYRQAPGKERELVAAITRSGGRTYYADSVKGRFTISRDNAKNTVYLQMTSLKPEDTAVYYCAADRGVTRQKMDYWGQGTQVTVSS”, the “polyreactivity (PSR sort gate)” value was “low polyreactivity”.

In the case of “QVQLVESGGGLVQAGGNLRLSCAASGRIFSSYAMGWYRQAPGKERELVAAITGTGGTTYYADSVKGRFTISRDNAKYTVYLQMNSLKPEDTAVYYCNAERIYRLSRDSAVQYDYWGQGTQVTVSS”, the “polyreactivity (PSR sort gate)” value is “low polyreactivity”.

As for “QVQLVESGGGLVQAGGNLRLSCAASGSIFPRNAMGWYRQAPGKERELVAAISWRGGSTYYADSVKGRFTISRDNAKNTVYLQMNSLKPEDTAVYYCAATTYRSRYDYWGQGTQVTVSS”, the “polyreactivity (PSR sort gate)” value is recorded as “high polyreactivity”.

On to “QVQLVESGGGLVQAGGRLGLSCAACGFICDGYAMGWYRQAPGKDRELVAAITGSGGSPYYADSVKGRFTISRDNAKNTVYLQMNSLKPEDTAVYYCNTDYYSVRSGSYWHFPGGDYWGQGTQVTVSS”, for which the “polyreactivity (PSR sort gate)” value was “low polyreactivity”.

Regarding “QVQLVESGGGLVQAGGRLLLSCAASGSTFDAYAMGWYRQAPGKERELVAAITNGGSTYYADSVKGRFTISRDNAKNTVYFQMNCLKPEDTAVYYCNAQHRTVWGIFGRFNYWGLGTQVTVSS”, the “polyreactivity (PSR sort gate)” value was “low polyreactivity”.

“QVQLVESGGGLVQAGGRLPISCAASGLTFTSNAMGGYIQAPGKERELVASITWYGGSTSYADSVKGRFTISRDYAKNTVDFQMNSLKPEDTAVSYCAADAWRSYGYRAYYYWGQGTQVTVSS”: the “polyreactivity (PSR sort gate)” value is “high polyreactivity”.

On to “QVQLVESGGGLVQAGGRLRFSCAASGSTFVNNAMGWYRQAPGKERELVAAISRRGGRTYYADSEKGRFTISRDNAKNTVYLQMKSLKPEDTAVYYCAADESRYDYWGQGTQVTVSS”, for which the “polyreactivity (PSR sort gate)” value was “high polyreactivity”.

Take “QVQLVESGGGLVQAGGRLRISCAASGRTFYRYAMGWYRQAPGKERELVAAITYSGGSTNYADSVKGRFTISRDYAKNTVYLQMNSLKPEDTAVYYCATRYNVVRWPYYYWGQGTQVNVSS”: the “polyreactivity (PSR sort gate)” value is “high polyreactivity”.

Consider “QVQLVESGGGLVQAGGRLRISFAATGITSGRYAMGGYRQAPGNERELVAAISNSGGSTYYADSVKGRFTISRDNAKNTVYLQMNSLKPEDTAVYYCAARSASSRMDYWGQGTQVTVSS”, for which the “polyreactivity (PSR sort gate)” value is “high polyreactivity”.

The record behind these values is the nanobody polyreactivity screen of Harvey et al. (2022).
